Patent publication US20250114467A1 (SHANGHAI FUDAN ZHANGJIANG BIO PHARMACEUTICAL, published 2025)

B1: ch36H10 (antibody, human IgG1, kappa, V domains shown)
VH: EVQFQQSGPELVKPGASVKISCKASGYTFTDYNIHWVRQSQGKSLEWIGLIYPFNGGIVYNQKFKSKATLTVDNSSTSAYMELRSLSSEDSAVYFCARLNWEGYWGQGSTLIVSS
VL: DIKMTQSPSSIYAFLGERVTITCKASQDINSYLSWFQQKPGKSPKTLIYRANRLVGGVPSRFSGSGSGQDYSLTISSLEYEDVGDYYCLQYAEFPYTFGGGTKLEIKR
notes: Chimeric: murine variable regions on human IgG1 heavy and kappa light constant regions; also called chimeric antibody 36H10
B2: ch4H7 (antibody, human IgG1, kappa, V domains shown)
VH: EVQLQQSGAELVRPGALVKLSCKASGFNFKDYYIHWVKQRPELGLEWIGWIDPENGNAIYDPKFQDKASITADTSSNTAYLHLSSLTSEGTAVYYCASEDAYYPFAYWGQGTLVTVSA
VL: DIVMSQSPSSLAVSVGEKVTMRCKSSQSLLYSSNQKNYLAWYQQKPGQSPKLLIYWASTRESGVPDRFTGSGSGTDFTLTISSVKAEDLAVYFCQQYYSYRTFGGGTKLEIKR
notes: Chimeric: murine variable regions on human IgG1 heavy and kappa light constant regions; also called chimeric antibody 4H7
B3: FDA031 (antibody, human IgG1, kappa, V domains shown)
VH: QVQLVQSGAEVKKPGASVKVSCKASGYTFTRYWIHWIRQAPGQGLEWMGYINPTTVYTEFNQNFKDRVTMTRDTSTSTVYMELSSLRSEDTAVYYCARGGSNFFDYWGQGTTVTVSS
VL: AIQLTQSPSSLSASVGDRVTITCRASENIYYNLAWYQQKPGKAPKLLIYTANSLEDGVPSRFSGSGSGTDFTLTISSLQPEDFATYFCKQAYDVPPTFGGGTKLEIKR
notes: also called anti-DLL3 antibody FDA031

Assays:
[1] = target: T1, human DLL4 (purchased from Acro, DL4-H5227) (human, UniProt Q9NR61 27-524); test: ELISA on plate-coated human DLL4 protein (1 µg/ml), HRP goat anti-human secondary, OD 450 nm [right panel]
T1 construct: Bought; also called hDLL4
T1 sequence (Q9NR61 27-524 limits assumed): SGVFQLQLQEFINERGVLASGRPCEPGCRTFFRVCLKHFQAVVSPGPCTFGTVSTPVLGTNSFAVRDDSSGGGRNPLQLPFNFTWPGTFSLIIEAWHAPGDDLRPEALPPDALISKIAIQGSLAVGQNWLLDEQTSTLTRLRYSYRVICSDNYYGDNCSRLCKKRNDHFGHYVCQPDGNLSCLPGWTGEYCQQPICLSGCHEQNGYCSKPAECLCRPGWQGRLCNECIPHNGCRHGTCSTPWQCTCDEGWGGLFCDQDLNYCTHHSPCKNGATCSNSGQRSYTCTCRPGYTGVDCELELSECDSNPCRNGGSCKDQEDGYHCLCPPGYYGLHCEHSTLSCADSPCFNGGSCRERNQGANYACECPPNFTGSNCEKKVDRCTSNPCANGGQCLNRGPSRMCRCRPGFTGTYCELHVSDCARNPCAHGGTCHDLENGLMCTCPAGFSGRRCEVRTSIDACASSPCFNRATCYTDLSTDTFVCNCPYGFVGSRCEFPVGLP
Protocol: (§1) The chimeric antibodies obtained in Example 6 were evaluated for their binding abilities to human DLL1 (purchased from Acro, DL1-H52H8) and DLL4 (purchased from Acro, DL4-H5227) proteins using the ELISA method. The ELISA detection method involved diluting DLL1 and DLL4 proteins with PBS to a final concentration of 1 μg/ml and coating them onto 384-well ELISA plates (purchased from Corning, 3700) at 4° C. overnight. The next day, the supernatant in the plate wells was discarded, and the wells were blocked with 80 μl of 3% milk (dissolved in PBS) for 2 hours, followed by washing three times with 80 μl of PBST (0.1% Tween20). […] After washing with 80 μl of PBST (0.1% Tween20) for five times, 25 μl of HRP-labeled goat anti-human secondary antibody (Jackson, 1:10000) was added to each well and incubated at room temperature for 1 hour, discard the supernatant, and the wells were then washed seven times with 80 μl of PBST (0.1% Tween20). After adding 25 μl of TMB chromogen solution for 10 minutes, the reaction was terminated with 2M HCl, and the absorbance value at 450 nm was measured with a Microplate reader (purchased from Biotek, Elx808). […] To assess the cross-reactivity of the antibodies with mouse and monkey DLL3, mouse DLL3-expressing plasmid pCMV3-mDLL3 (purchased from Beijing Yiqiao, MG58052-UT) and monkey DLL3-expressing plasmid pCMV3-rheDLL3 (purchased from Beijing Yiqiao, CG90919-UT) were used to construct overexpressing cell lines. The construction of overexpressing cells was as described in Examples 2-3. The binding abilities of the chimeric antibodies to these cells were determined by flow cytometry to assess the cross-reactivity of the antibodies with different species.

[2] = target: T2, human DLL3, His tag (acrobiosystems, DL3-H52H4) (human, UniProt Q9NYJ7 27-492); test: BLI (Octet 96e), antibody on sensor, DLL3-His 100-3.13 nM in solution
T2 construct: Bought; also called human DLL3 protein; free DLL3; not shown: His tag
T2 sequence (looked up): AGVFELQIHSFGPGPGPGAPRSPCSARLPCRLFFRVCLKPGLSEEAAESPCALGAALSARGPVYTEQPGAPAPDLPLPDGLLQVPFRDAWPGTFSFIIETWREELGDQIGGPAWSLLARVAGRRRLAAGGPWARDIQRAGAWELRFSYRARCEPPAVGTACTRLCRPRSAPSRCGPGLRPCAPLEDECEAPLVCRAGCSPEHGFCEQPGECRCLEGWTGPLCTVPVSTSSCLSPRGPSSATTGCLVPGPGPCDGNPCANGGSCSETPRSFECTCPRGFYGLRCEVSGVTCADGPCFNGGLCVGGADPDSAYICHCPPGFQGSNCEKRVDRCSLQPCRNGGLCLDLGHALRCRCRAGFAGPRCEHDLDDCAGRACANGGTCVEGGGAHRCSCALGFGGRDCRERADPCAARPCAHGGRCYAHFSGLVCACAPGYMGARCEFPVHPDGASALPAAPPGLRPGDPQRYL
Protocol: To assess the affinity of antibodies for human DLL3 protein, this study employed the BLI method to detect the binding kinetics curves of immobilized antibodies with free DLL3. The method was conducted according to the instrument's user manual (supplier: Fortebio, equipment model: Octet 96e). Briefly, AMC sensors were equilibrated for 60 s with Loading Buffer/Sample dilution buffer (1×PBS, pH7.4, with 0.1% BSA and 0.02% Tween-20) to obtain Baseline 1. The antibodies to be detected were diluted with Loading Buffer to a concentration of 10 ug/ml and bound to the equilibrated sensors, after which the sensors were re-equilibrated with Loading Buffer to obtain Baseline 2. The antibody-loaded sensors were then placed in human DLL3, His tag (supplier: acrobiosystems, catalog number: DL3-H52H4) diluted with Sample Dilution Buffer to concentrations ranging from 100 to 3.13 nM for 90 s to obtain the antibody-protein binding curve. Then, the sensors combined with antigen were placed in the Sample Dilution Buffer again and dissociated for 180 s, and the dissociation curve was obtained. The k-on and k-off values of the antibody-protein binding were calculated based on the binding and dissociation curves, and the KD values were calculated, with the results shown in Table 4.

[3] = target: T3, recombinant DLL3 protein (purchased from ACRO, DL3-H5255) (human, UniProt Q9NYJ7 27-479); test: ELISA, plate-coated human DLL3 protein 1 µg/ml
T3 construct: Bought; also called human DLL3 protein; hDLL3
T3 sequence (looked up): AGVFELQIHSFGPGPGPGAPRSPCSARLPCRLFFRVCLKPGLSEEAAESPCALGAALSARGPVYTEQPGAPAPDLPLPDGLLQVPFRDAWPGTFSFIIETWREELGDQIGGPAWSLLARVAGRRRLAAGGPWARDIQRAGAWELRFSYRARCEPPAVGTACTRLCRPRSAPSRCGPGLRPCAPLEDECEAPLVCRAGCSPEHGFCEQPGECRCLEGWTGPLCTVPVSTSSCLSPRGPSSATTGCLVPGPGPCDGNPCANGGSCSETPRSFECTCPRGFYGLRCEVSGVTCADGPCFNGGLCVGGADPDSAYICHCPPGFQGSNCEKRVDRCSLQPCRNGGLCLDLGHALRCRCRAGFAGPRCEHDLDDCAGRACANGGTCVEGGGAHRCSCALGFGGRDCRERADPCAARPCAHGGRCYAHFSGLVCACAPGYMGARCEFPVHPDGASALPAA
Source text: Six 6-week-old SPF grade female Balb/C mice (purchased from Shanghai Jihui Laboratory Animal Care Co., Ltd.) were selected and randomly divided into two groups, A and B. They were immunized with recombinant DLL3 protein (purchased from ACRO, DL3-H5255) at two-week intervals. Freund's complete adjuvant was used for the first immunization and Freund's incomplete adjuvant was used for subsequent immunizations. On days 35 and 49, blood samples were collected from the mice via orbital bleeding, and the immune serum titers of the mice were detected using conventional methods of ELISA and Flow Cytometry (FACS). ELISA detection method: DLL3 protein was diluted with PBS to a concentration of 1 μg/ml. 100 μl/well was added to a 96-well ELISA plate and incubated overnight at 4° C. The next day, the supernatant was discarded, and each well was blocked with 200 μl of 2% milk in PBS for 2 hours. After discarding the blocking solution, the wells were washed 3 times with 200 μl of PBST (0.1% Tween20). The serum to be detected was pre-diluted 100 times as the starting concentration, followed by a 3-fold gradient dilution across 11 concentrations, with 100 μl added to each well of the ELISA plate. After incubating at room temperature for 1 hour, the supernatant was discarded and the wells were washed 5 times with 200 μl of PBST (0.1% Tween20). Then, 100 μl of HRP-labeled goat anti-mouse secondary antibody (Jackson, 1:10000) was added and incubated at room temperature for 1 hour. After discarding the supernatant, the wells were washed 7 times with 200 μl of PBST (0.1% Tween20). 100 μl of TMB chromogen solution was added to each well for 10 minutes. The reaction was terminated with 2M HCl, and absorbance value at 450 nm was read with a Microplate Reader (purchased from Biotek, Elx808).
For the hybridoma clones with good binding and internalization activities identified in Example 5, the heavy chain variable region sequences were synthesized and cloned into the pFUSEss-CHIg-hG1 vector (purchased from InvivoGen, catalog number pfusess-hchgl) comprising the amino acid sequence of the human antibody IgG1 heavy chain constant region by homologous recombination.

[4] = target: T1, human DLL4 (purchased from Acro, …); test: ELISA, plate-coated protein 1 µg/ml
Protocol: as §1

[5] = target: T4, human DLL1 (purchased from Acro, DL1-H52H8) (human, UniProt O00548 18-540); test: ELISA on plate-coated human DLL1 protein (1 µg/ml), HRP goat anti-human secondary, OD 450 nm [left panel]
T4 construct: Bought; also called hDLL1
T4 sequence (looked up): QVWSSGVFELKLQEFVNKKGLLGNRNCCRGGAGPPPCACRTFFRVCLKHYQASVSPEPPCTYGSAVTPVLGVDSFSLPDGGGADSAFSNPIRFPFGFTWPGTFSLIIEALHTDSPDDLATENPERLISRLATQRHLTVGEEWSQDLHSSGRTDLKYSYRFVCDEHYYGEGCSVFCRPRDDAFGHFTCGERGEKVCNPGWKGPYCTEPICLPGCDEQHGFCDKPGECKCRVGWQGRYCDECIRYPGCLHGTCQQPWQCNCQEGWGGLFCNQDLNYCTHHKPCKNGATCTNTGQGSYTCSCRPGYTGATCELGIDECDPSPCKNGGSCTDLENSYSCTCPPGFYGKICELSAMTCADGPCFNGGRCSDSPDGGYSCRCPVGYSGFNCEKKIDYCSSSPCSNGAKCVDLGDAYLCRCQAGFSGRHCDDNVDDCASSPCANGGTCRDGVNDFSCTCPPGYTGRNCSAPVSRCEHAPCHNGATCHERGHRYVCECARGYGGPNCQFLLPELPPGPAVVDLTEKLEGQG
Protocol: as §1

Binder | binding result [1] | Kd [2] [nM] | koff [2] [s⁻¹] | kon [2] [M⁻¹ s⁻¹] | EC50 [3] [µg/mL] | binding result [4] | binding result [5]
B1 | no binding (tested: 20 µg/ml) | 0.0991 | 0.000168 | 1.69e+06 | 0.0159 | – | –
B2 | – | 0.104 | 0.000111 | 1.07e+06 | 0.0115 | no binding (tested: up to 20 µg/ml) | –
B3 | – | – | – | – | 0.0233 | – | no binding (tested: 20 µg/ml)
